A value given as a limit tells only on which side of the number the result lay.

In experiment [1] the target is collagen present in fibrotic rat livers (rat). Briefly: 2 h incubation, wash and 22 h culture of fibrotic rat liver slices, recovered protein by MSD U-PLEX. The protocol:
(§1) FIGS. 26A-26B: Precision cut liver slices were prepared from fibrotic rat livers. IL-12 Fc fusion proteins (BI-057 or BI-065; in amounts indicated in figure legends) were added to the slices and incubated for 24 hours (FIG. 26A) or 2 hours followed by 22 h recovery period (FIG. 26B). After 2 h incubation, fusion proteins were thoroughly washed and incubated for another 22 h in medium before harvest. After 24 h, slices were collected, lysed and homogenized. The amount of IL-12 Fc fusion proteins recovered from the slices was determined with the MSD U-PLEX Biomarker Assay using IL-12 Fc fusion proteins as standards.
(§2) Briefly, tissue cores are cut from the fibrotic rat liver using a 5 mm cylindrical motorized tissue coring press (Alabama R&D, MD5000), and 300 μm thick tissue slices are cut using a tissue slicer (Alabama R&D, MD6000). All tissue slices are cultured with a floating culture system (60 rpm) in 12 well plates (Nunc) in a humidified incubator, 95% O₂/5% CO₂, 37° C. in 1.3 mL supplemented William's Medium E (Life Technologies).

In another experiment the target is T1, rat collagen I (rat, UniProt P02454 152-1207; P02466 86-1125).
T1 construct: Bought; also called Rat collagen (Corning)
T1 sequence (P02454 152-1207, chain 1 of 2): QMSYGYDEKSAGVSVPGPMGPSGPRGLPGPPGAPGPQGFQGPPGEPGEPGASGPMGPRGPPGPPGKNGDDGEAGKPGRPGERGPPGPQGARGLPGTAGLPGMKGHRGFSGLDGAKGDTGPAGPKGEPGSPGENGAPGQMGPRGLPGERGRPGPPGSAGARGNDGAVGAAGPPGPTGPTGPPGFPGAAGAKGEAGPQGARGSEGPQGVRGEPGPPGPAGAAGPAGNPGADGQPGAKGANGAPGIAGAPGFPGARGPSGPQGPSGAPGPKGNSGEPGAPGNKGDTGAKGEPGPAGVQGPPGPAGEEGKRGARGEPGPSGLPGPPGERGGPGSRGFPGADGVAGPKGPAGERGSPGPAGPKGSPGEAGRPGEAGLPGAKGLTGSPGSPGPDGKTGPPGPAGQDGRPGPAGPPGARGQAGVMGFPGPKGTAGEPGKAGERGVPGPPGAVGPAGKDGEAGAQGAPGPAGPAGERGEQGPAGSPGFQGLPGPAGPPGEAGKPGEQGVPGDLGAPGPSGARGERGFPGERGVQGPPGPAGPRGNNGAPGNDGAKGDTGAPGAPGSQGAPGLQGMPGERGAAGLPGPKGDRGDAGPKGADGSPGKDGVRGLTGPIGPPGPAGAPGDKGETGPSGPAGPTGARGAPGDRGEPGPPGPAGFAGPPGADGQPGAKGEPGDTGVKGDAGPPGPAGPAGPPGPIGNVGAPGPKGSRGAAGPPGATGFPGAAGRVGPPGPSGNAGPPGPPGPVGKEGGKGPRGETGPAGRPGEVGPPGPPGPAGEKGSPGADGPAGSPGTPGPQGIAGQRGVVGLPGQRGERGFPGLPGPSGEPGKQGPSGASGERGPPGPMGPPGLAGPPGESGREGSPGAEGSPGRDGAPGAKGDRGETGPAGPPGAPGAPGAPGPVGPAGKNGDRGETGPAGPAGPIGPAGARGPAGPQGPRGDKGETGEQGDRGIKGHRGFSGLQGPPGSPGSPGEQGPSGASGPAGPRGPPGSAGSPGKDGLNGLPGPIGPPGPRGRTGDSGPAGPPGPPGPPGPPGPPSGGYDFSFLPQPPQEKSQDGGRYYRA
T1 sequence (P02466 86-1125, chain 2 of 2): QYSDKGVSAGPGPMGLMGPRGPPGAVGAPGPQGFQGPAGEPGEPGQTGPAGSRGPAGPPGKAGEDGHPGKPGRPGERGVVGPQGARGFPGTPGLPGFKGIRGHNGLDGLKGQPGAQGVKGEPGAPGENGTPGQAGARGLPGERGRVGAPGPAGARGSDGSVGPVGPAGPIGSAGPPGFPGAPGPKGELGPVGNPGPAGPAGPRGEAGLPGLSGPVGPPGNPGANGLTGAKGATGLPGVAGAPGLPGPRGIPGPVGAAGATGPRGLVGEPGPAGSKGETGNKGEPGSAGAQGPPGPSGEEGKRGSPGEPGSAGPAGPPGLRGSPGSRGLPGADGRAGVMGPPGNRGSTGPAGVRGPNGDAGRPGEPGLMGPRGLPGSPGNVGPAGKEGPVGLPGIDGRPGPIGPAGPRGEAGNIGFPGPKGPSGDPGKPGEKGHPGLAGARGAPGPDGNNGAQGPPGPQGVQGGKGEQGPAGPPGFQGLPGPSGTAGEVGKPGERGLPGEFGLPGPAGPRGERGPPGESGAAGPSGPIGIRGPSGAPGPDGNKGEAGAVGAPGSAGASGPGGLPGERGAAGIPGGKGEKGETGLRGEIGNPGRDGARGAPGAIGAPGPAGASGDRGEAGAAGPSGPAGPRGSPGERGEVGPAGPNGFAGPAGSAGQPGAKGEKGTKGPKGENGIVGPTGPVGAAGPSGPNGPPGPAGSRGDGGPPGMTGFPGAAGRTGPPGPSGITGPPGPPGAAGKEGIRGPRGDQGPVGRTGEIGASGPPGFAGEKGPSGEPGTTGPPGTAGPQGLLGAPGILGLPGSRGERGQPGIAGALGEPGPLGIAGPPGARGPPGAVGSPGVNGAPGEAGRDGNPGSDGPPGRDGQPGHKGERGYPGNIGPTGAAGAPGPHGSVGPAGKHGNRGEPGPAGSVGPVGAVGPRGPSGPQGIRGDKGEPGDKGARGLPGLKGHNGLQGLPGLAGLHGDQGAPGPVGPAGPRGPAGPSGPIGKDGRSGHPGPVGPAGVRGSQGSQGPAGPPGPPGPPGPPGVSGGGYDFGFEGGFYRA
Briefly: ELISA on plates coated with rat collagen I (Corning), detection with anti-human Fc. The protocol: (§3) Collagen binding properties were further evaluated in ELISA assay. Chimeric IL-12 Fc fusion protein BI-065 or chimeric IL-12 Fc fusion protein containing collagen I TME linker BI-057 were added to collagen I-coated plates. To this end, plates were coated either with rat collagen I (FIG. 25A) or with human skin collagen I (FIG. 25B).
(§4) Briefly, high binding microplates (greiner) are coated over night at 4° C. with rat collagen (Corning) or human collagen (Millipore/R&D) diluted in coating buffer (Invitrogen) with a concentration of 0.005 mg/mL. IL-12 Fc fusion proteins are diluted in PBS+1% BSA and added to collagen precoated plates for 2 hours. The plates are blocked with 1% BSA before addition of proteins to minimize unspecific binding. Next, plates are washed 3× followed by incubation with biotinylated anti-human Fc antibody (Invitrogen). After additional washing step, Streptavidin-HRP are added to the plates. Substrate are added to plates after a washing step and plates are read in ELISA reader (Tecan).

Experiment [2] has as its target collagen present in fibrotic rat livers (rat). In words: 24 h incubation with fibrotic rat liver slices, recovered protein by MSD U-PLEX. How it is done:
as §1, §2

A further experiment deals with T2, human collagen type 1 (human, UniProt P02452 162-1218; P08123 80-1119, limits assumed).
T2 construct: Bought or cell-made collagen; also called human collagen I; human collagen (Millipore/R&D)
T2 sequence (P02452 162-1218 limits assumed, chain 1 of 2): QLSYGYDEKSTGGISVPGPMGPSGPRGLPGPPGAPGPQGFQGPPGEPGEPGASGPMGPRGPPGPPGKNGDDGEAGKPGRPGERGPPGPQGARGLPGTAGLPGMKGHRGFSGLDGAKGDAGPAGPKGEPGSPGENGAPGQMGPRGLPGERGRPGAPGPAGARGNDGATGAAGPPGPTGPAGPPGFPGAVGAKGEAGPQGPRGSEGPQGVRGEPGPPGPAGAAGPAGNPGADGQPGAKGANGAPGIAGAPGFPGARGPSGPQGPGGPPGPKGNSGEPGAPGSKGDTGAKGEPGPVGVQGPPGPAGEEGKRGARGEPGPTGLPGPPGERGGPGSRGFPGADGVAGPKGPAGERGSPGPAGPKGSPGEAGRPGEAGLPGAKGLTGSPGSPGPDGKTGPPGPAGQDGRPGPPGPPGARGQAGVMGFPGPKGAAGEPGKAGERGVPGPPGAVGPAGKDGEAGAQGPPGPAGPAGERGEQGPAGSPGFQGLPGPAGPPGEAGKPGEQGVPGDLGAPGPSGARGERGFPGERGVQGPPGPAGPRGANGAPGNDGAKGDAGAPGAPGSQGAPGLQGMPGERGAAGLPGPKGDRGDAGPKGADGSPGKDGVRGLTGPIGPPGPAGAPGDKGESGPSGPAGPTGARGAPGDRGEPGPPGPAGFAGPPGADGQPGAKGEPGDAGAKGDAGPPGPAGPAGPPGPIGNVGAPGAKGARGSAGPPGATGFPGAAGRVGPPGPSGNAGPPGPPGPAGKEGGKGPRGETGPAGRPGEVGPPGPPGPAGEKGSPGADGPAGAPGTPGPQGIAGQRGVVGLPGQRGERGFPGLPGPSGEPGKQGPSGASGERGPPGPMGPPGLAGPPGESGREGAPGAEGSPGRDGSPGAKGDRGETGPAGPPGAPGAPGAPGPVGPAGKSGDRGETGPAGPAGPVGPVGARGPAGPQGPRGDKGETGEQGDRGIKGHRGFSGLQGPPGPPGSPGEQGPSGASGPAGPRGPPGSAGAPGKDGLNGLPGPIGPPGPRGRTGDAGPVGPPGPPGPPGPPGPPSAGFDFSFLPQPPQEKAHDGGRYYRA
T2 sequence (P08123 80-1119 limits assumed, chain 2 of 2): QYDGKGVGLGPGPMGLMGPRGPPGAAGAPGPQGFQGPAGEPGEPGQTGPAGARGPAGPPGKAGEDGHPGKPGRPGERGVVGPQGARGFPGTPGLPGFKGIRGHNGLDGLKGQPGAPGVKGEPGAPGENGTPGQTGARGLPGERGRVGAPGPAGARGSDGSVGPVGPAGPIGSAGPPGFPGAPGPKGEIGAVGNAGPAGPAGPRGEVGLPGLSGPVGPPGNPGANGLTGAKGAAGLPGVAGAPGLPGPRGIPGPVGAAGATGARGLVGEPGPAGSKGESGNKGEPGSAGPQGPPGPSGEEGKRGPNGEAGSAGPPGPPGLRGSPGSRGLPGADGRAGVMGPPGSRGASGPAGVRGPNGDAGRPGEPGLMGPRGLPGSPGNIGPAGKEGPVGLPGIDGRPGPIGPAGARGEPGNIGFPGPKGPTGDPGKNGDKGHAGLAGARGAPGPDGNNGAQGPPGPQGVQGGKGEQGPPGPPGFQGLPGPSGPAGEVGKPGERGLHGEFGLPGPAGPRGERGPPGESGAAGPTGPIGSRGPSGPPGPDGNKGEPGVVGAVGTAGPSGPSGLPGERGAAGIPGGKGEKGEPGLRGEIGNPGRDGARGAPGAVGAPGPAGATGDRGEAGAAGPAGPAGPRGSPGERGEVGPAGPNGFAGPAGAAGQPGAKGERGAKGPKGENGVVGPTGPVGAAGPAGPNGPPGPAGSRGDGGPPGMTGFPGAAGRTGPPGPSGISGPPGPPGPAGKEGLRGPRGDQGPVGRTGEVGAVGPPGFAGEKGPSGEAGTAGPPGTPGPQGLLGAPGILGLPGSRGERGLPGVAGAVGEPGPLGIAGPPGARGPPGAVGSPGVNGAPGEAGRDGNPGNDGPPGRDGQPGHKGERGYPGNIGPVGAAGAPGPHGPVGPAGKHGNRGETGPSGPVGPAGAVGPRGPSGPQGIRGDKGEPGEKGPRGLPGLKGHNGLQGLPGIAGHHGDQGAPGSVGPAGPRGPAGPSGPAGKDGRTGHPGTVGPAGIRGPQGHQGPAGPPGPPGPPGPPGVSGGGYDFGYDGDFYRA
Briefly: ELISA on plates coated with human collagen I (Millipore/R&D), detection with anti-human Fc. How it is done: as §3, §4

The target in experiment [3] is T3, Interleukin-12 (IL-12) (human, UniProt P29459 23-219; P29460 23-328).
T3 sequence 1: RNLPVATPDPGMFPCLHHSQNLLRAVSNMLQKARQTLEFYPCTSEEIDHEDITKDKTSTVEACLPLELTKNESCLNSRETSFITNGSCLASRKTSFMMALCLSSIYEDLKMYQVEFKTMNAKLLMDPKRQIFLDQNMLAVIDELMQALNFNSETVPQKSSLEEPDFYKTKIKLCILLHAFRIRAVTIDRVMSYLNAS
T3 sequence 2: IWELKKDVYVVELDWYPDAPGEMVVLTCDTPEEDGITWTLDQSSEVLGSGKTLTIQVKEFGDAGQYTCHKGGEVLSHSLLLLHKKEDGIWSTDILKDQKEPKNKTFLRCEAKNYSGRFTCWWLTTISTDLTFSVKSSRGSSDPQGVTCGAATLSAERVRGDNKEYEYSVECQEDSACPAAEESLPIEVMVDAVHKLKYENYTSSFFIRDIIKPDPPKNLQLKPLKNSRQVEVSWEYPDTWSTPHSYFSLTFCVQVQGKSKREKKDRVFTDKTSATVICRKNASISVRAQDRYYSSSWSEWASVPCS
Briefly: cell-based or functional assay.

Experiment [4] addresses T3, Interleukin-12 (IL-12). In words: affinity for IL-12; method not stated.

B1: BI-057 (Fc fusion)
chain 1: EPKSSDKTHTCPPCPAPEAAGGPSVFLFPPKPKDTLMISRTPEVTCVVVDVSHEDPEVKFNWYVDGVEVHNAKTKPREEQYNSTYRVVSVLTVLHQDWLNGKEYKCKVSNKALPAPIEKTISKAKGQPREPQVYTLPPSREEMTKNQVSLWCLVKGFYPSDIAVEWESNGQPENNYKTTPPVLDSDGSFFLYSKLTVDKSRWQQGNVFSCSVMHEALHNHYTQKSLSLSPGGGGGSGGGGGPLGVRGGGGGSIWELKKDVYVVELDWYPDAPGEMVVLTCDTPEEDGITWTLDQSSEVLGSGKTLTIQVKEFGDAGQYTCHKGGEVLSHSLLLLHKKEDGIWSTDILKDQKEPKNKTFLRCEAKNYSGRFTCWWLTTISTDLTFSVKSSRGSSDPQGVTCGAATLSAERVRGDNKEYEYSVECQEDSACPAAEESLPIEVMVDAVHKLKYENYTSSFFIRDIIKPDPPKNLQLKPLKNSRQVEVSWEYPDTWSTPHSYFSLTFCVQVQGKSKREKKDRVFTDKTSATVICRKNASISVRAQDRYYSSSWSEWASVPCSGGGGSGGGGSGGGGSRVIPVSGPARCLSQSRNLLKTTDDMVKTAREKLKHYSCTAEDIDHEDITRDQTSTLKTCLPLELHKNESCLATRETSSTTRGSCLPPQKTSLMMTLCLGSIYEDLKMYQTEFQAINAALQNHNHQQIILDKGMLVAIDELMQSLNHNGETLRQKPPVGEADPYRVKMKLCILLHAFSTRVVTINRVMGYLSSAGSGGLRELHLDNN
chain 2: EPKSSDKTHTCPPCPAPEAAGGPSVFLFPPKPKDTLMISRTPEVTCVVVDVSHEDPEVKFNWYVDGVEVHNAKTKPREEQYNSTYRVVSVLTVLHQDWLNGKEYKCKVSNKALPAPIEKTISKAKGQPREPQVYTLPPSREEMTKNQVSLSCAVKGFYPSDIAVEWESNGQPENNYKTTPPVLDSDGSFFLVSKLTVDKSRWQQGNVFSCSVMHEALHNRFTQKSLSLSPGGGGGSGGGGSGGGGSGGGGSGGGGSEVQLVESGGGLVQPGGSLRLSCAASGRTFETIAMGWFRQAPGKGLEFVAVIRGSGVATYYAESVKGRFTISKDSSKNTVYLQMNSLRAEDTAVYYCAATTNRFKNTDYTTYDYWGQGTQVTVSSA
notes: Knob-into-hole heterodimer; human p40, mouse p35; also called chimeric IL-12 Fc fusion protein containing collagen I TME linker
Regarding B1, the “fold recovery from liver slices against BI-065” value in experiment [1] was 10 fold. The results for the concentration for a half-maximal effect (EC50) in the experiment with rat collagen I and in the experiment with human collagen type 1 were 26 nM and 75 nM, respectively. Further, the “fold decrease in fold recovery from liver slices against BI-065” value in experiment [2] was more than 10 fold.

B2: BI-039 (VHH)
VHH: QVQLVESGGGLVQAGGSLRLSCAASGRTFETIAMGWFRQVPGKEREFVAVIRGSGVATYYPDSVKGRFTISKDSAKNTVYLQMNNLKPEDTAVYYCAATTNRFKNTDYTTYDYWGQGTQVTVSS
With B2, in the experiment with Interleukin-12 (IL-12) [3], half-maximal inhibition (IC50) required 0.61 nM. Further, the Kd with Interleukin-12 (IL-12) [4] is 3.5 nM.

B3: BI-119 (VHH)
VHH: EVQLVESGGGLVQPGGSLRLSCAASGRTFETIAMGWFRQAPGKEREFVAVIRGSGVATYYPESVKGRFTISKDSSKNTVYLQMNSLRAEDTAVYYCAATTNRFKNRDYTTYDYWGQGTQVTVSS
Consider B3, for which the half-inhibitory concentration (IC50) in the experiment with Interleukin-12 (IL-12) [3] came out at 2.4 nM. Moreover, the Kd with Interleukin-12 (IL-12) [4] is 8.5 nM.

B4: BI-117 (VHH)
VHH: EVQLVESGGGLVQPGGSLRLSCAASGRTFETIAMGWFRQAPGKEREFVAVIRGSGVATYYPESVKGRFTISKDSSKNTVYLQMNSLRAEDTAVYYCAATTNRFKNTDYTTYDYWGQGTQVTVSS
notes: also called 61-Gft-106_D62E
As to B4, in the experiment with Interleukin-12 (IL-12) [3], the “IC50” value was 0.36 nM. The affinity in the experiment with Interleukin-12 (IL-12) [4], expressed as Kd, was 3 nM.

B5: BI-120 (VHH)
VHH: EVQLVESGGGLVQPGGSLRLSCAASGRTFETIAMGWFRQAPGKEREFVAVIRGSGVATYYPESVKGRFTISKDSSKNTVYLQMNSLRAEDTAVYYCAATTNRFKNTEYTTYDYWGQGTQVTVSS
For B5, the midpoint of inhibition in the experiment with Interleukin-12 (IL-12) [3], the IC50, lay at 2.5 nM. The molecule also gave a Kd with Interleukin-12 (IL-12) [4] of 4.1 nM.

B6: BI-063 (VHH)
VHH: EVQLVESGGGLVQPGGSLRLSCAASGRTFETIAMGWFRQAPGKEREFVAVIRGSGVATYYPDSVKGRFTISKDSSKNTVYLQMNSLRAEDTAVYYCAATTNRFKNTDYTTYDYWGQGTQVTVSS
notes: Variant of BI-039; also called 61-Gft-106; BI-063 VHH
On to B6, for which the half-inhibitory concentration (IC50) with Interleukin-12 (IL-12) [3] is 0.89 nM. Also, the affinity in the experiment with Interleukin-12 (IL-12) [4], expressed as Kd, was 3.4 nM.

B7: BI-123 (VHH)
VHH: EVQLVESGGGLVQPGGSLRLSCAASGRTFETIAMGWFRQAPGKEREFVAVIRGSGVATSYPESVKGRFTISKDSSKNTVYLQMNSLRAEDTAVYYCAATTNRFKNTDYTTYDYWGQGTQVTVSS
As for B7, the “IC50” value in the experiment with Interleukin-12 (IL-12) [3] was found to be 10 nM. In the experiment with Interleukin-12 (IL-12) [4], this molecule returned a dissociation constant (Kd) of 30 nM.

B8: BI-048 (VHH)
VHH: EVQLVESGGGLVQPGGSLRLSCAASGRTFETIAMGWFRQAPGKGLEFVAVIRGSGVATYYAESVKGRFTISKDSSKNTVYLQMNSLRAEDTAVYYCAATTNRFKNTDYTTYDYWGQGTQVTVSS
notes: Humanised variant of BI-039, the selected masking domain; also called Mix 13
With B8, in the experiment with Interleukin-12 (IL-12) [3], the “IC50” value was determined as 0.44 nM. In addition, the affinity with Interleukin-12 (IL-12) [4], expressed as Kd, was 3.7 nM.

B9: BI-049 (VHH)
VHH: EVQLVESGGGLVQPGGSLRLSCAASGRTFETIAMGWFRQAPGKGLEFVAVIRGSGVATYYAESVKGRFTISKDSSKNTVYLQMNSLRAEDTAVYYCAATTNRFKNREYTTYDYWGQGTQVTVSS
notes: Variant of BI-039, mask of BI-054; also called Mix 15
Regarding B9, the “IC50” value with Interleukin-12 (IL-12) [3] is 5.7 nM. This molecule also showed a Kd in the experiment with Interleukin-12 (IL-12) [4] of 12 nM.

Values taken from patent US20240262879A1 (Boehringer Ingelheim, published 2024).
